Measured values from patent US11472877 (Alector, dated 2022).

Tests used:
mouse TREM2 on BWZ cells [1] = target: T1, mouse TREM2 on BWZ cells (mouse, UniProt Q99NH8 19-227); assay: FACS, BWZ mouse TREM2
T1 construct: whole, on cells; also called BWZ Mouse TREM2
T1 sequence (looked up): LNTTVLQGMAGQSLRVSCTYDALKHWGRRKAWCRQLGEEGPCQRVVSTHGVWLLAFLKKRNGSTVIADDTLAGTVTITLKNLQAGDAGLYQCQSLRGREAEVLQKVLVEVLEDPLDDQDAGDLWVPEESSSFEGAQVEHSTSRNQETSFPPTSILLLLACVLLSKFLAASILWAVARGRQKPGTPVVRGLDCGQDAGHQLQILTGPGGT

human TREM2 on BWZ cells [2] = target: T2, human TREM2 on BWZ cells (human, UniProt Q9NZC2 19-230); assay: FACS, BWZ human TREM2
T2 construct: whole, on cells; not tied to the cell line; also called BWZ Human TREM2
T2 sequence (looked up): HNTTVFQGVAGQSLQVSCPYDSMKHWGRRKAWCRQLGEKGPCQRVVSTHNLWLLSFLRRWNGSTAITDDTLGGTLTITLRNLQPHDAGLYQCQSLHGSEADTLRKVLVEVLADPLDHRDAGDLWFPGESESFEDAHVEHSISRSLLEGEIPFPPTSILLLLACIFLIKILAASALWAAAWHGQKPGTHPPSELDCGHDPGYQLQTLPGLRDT

human TREM2 on BWZ cells [3] = target: T2, human TREM2 on BWZ cells; assay: FACS, BWZ cells
mouse TREM2 on BWZ cells [4] = target: T1, mouse TREM2 on BWZ cells; assay: FACS, BWZ cells
mouse TREM1 on CHO cells = target: T3, mouse TREM1 on CHO cells (mouse, UniProt Q9JKE2 21-230); assay: FACS, CHO mouse TREM1
T3 construct: also called CHO-mT1
T3 sequence: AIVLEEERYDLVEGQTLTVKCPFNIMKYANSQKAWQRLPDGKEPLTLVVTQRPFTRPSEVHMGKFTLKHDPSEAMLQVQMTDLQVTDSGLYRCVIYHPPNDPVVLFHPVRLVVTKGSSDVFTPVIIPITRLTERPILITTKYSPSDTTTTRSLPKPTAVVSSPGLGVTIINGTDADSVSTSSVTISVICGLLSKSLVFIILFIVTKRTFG

Row | Binder | FOB Fold Over Background (mouse TREM2 on BWZ cells [1]) [fold] | FOB Fold Over Background (human TREM2 on BWZ cells [2]) [fold] | binding result (human TREM2 on BWZ cells [3]) | binding result (mouse TREM2 on BWZ cells [4]) | FOB Fold Over Background (mouse TREM1 on CHO cells) [fold]
1 | T1-80 (antibody, IgG1, V domains shown, huIgG1; also called TI-80; ADI-19159) VH: QVQLVESGGGVVQPGRSLRLSCAASGFTFSSYGMHWVRQAPGKGLEWVALIWYDGSNKYYADSVKGRFTISRDNSKNTLYLQMNSLRAEDTAVYYCARELIVGATGGLTYYYGMDVWGQGTTVTVSS VL: EIVMTQSPATLSVSPGERATLSCRASQSVGSNLAWYQQKPGQAPRLLIYGASTRATGIPARFSGSGSGTEFTLTISSLQSEDFAVYYCQQDHDRPLTFGGGTKVEIK | 0.9 | 1 | no binding | no binding | 1.2
2 | T1-54 (antibody, IgG1, V domains shown, huIgG1; also called TI-54; ADI-19129) VH: QVQLVQSGAEVKKPGSSVKVSCKASGGTFSSYAISWVRQAPGQGLEWMGGIIPIFGTANYAQKFQGRVTITADESTSTAYMELSSLRSEDTAVYYCARHWYALGSFDIWGQGTMVTVSS VL: EIVMTQSPATLSLSPGERATLSCRASQSVSSYLAWYQQKPGQAPRLLIYDSSNRATGIPARFSGSGSGTDFTLTISSLEPEDFAVYYCQQHDVWPITFGGGTKVEIK | 1.2 | 1.1 | no binding | no binding | 3.1
